Measured values taken from the supplement of paper PMC5998384.

Columns and labels:
HeLa Kyoto [1] = assay: solubility in G1/S (NP-40 vs SDS abundance) (log2 ratio); higher = more soluble; settings: cell cycle stage: G1/S
HeLa Kyoto [2] = assay: solubility change mitosis vs G1/S (difference of NP-40 vs SDS log2 ratios) (log2 ratio difference); higher = more soluble in mitosis
HeLa Kyoto [3] = assay: thermal stability score vs G1/S (z-score of summed log2 fold changes over temperatures); higher = more thermally stable than in G1/S
[4] = cell cycle stage: early G1 (4.5 h after nocodazole release)
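For solubility change mitosis vs G1/S (difference of NP-40 vs SDS log2 ratios) in this document: synchronized HeLa Kyoto cells (double thymidine block for G1/S, nocodazole release for mitosis), protein amounts in NP-40 versus SDS lysates quantified by mass spectrometry, three biological replicates.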
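For solubility in G1/S (NP-40 vs SDS abundance) in this document: HeLa Kyoto cells arrested at G1/S by double thymidine block, proteins quantified by TMT10plex mass spectrometry in mild NP-40 versus SDS extracts, three biological replicates.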
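For thermal stability score vs G1/S (z-score of summed log2 fold changes over temperatures) in this document: synchronized HeLa Kyoto cells, proteins quantified by TMT10plex mass spectrometry, three biological replicates, mitosis taken 0.5 h after nocodazole release, G1/S directly after double thymidine block.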

Row | Substance | solubility in G1/S (log2) (HeLa Kyoto [1]) | solubility change mitosis (log2) (HeLa Kyoto [2]) | thermal stability score (HeLa Kyoto [3]; [4]) | thermal stability score (HeLa Kyoto [3]; cell cycle stage: mitosis)
1 | MPLVVFCGLPYSGKSRRAEELRVALAAEGRAVYVVDDAAVLGAEDPAVYGDSAREKALRGALRASVERRLSRHDVVILDSLNYIKGFRYELYCLARAARTPLCLVYCVRPGGPIAGPQVAGANENPGRNVSVSWRPRAEEDGRAQAAGSSVLRELHTADSVVNGSAQADVPKELEREESGAAESPALVTPDSEKSAKHGSGAFYSPELLEALTLRFEAPDSRNRWDRPLFTLVGLEEPLPLAGIRSALFENRAPPPHQSTQSQPLASGSFLHQLDQVTSQVLAGLMEAQKSAVPGDLLTLPGTTEHLRFTRPLTMAELSRLRRQFISYTKMHPNNENLPQLANMFLQYLSQSLH [KTI12] | 0.526 | -0.00671 | -1.22 | -1.26
2 | MNPIVVVHGGGAGPISKDRKERVHQGMVRAATVGYGILREGGSAVDAVEGAVVALEDDPEFNAGCGSVLNTNGEVEMDASIMDGKDLSAGAVSAVQCIANPIKLARLVMEKTPHCFLTDQGAAQFAAAMGVPEIPGEKLVTERNKKRLEKEKHEKGAQKTDCQKNLGTVGAVALDCKGNVAYATSTGGIVNKMVGRVGDSPCLGAGGYADNDIGAVSTTGHGESILKVNLARLTLFHIEQGKTVEEAADLSLGYMKSRVKGLGGLIVVSKTGDWVAKWTSTSMPWAAAKDGKLHFGIDPDDTTITDLP [ASRGL1] | 0.282 | -0.207 | -1.89 | -2.25
3 | MAAAAPAAAAASSEAPAASATAEPEAGDQDSREVRVLQSLRGKICEAKNLLPYLGPHKMRDCFCTINLDQEEVYRTQVVEKSLSPFFSEEFYFEIPRTFQYLSFYVYDKNVLQRDLRIGKVAIKKEDLCNHSGKETWFSLQPVDSNSEVQGKVHLELKLNELITENGTVCQQLVVHIKACHGLPLINGQSCDPYATVSLVGPSRNDQKKTKVKKKTSNPQFNEIFYFEVTRSSSYTRKSQFQVEEEDIEKLEIRIDLWNNGNLVQDVFLGEIKVPVNVLRTDSSHQAWYLLQPRDNGNKSSKTDDLGSLRLNICYTEDYVLPSEYYGPLKTLLLKSPDVQPISASAAYILSEICRDKNDAVLPLVRLLLHHDKLVPFATAVAELDLKDTQDANTIFRGNSLATRCLDEMMKIVGGHYLKVTLKPILDEICDSSKSCEIDPIKLKEGDNVENNKENLRYYVDKLFNTIVKSSMSCPTVMCDIFYSLRQMATQRFPNDPHVQYSAVSSFVFLRFFAVAVVSPHTFHLRPHHPDAQTIRTLTLISKTIQTLGSWGSLSKSKSSFKETFMCEFFKMFQEEGYIIAVKKFLDEISSTETKESSGTSEPVHLKEGEMYKRAQGRTRIGKKNFKKRWFCLTSRELTYHKQPGSKDAIYTIPVKNILAVEKLEESSFNKKNMFQVIHTEKPLYVQANNCVEANEWIDVLCRVSRCNQNRLSFYHPSVYLNGNWLCCQETGENTLGCKPCTAGVPADIQIDIDEDRETERIYSLFTLSLLKLQKMEEACGTIAVYQGPQKEPDDYSNFVIEDSVTTFKTIQQIKSIIEKLDEPHEKYRKKRSSSAKYGSKENPIVGKAS [RASA2] | -0.1 | -0.128 | 0.349 | 0.0928
4 | MAQVSINNDYSEWDLSTDAGERARLLQSPCVDTAPKSEWEASPGGLDRGTTSTLGAIFIVVNACLGAGLLNFPAAFSTAGGVAAGIALQMGMLVFIISGLVILAYCSQASNERTYQEVVWAVCGKLTGVLCEVAIAVYTFGTCIAFLIIIGDQQDKIIAVMAKEPEGASGPWYTDRKFTISLTAFLFILPLSIPREIGFQKYASFLSVVGTWYVTAIVIIKYIWPDKEMTPGNILTRPASWMAVFNAMPTICFGFQCHVSSVPVFNSMQQPEVKTWGGVVTAAMVIALAVYMGTGICGFLTFGAAVDPDVLLSYPSEDMAVAVARAFIILSVLTSYPILHFCGRAVVEGLWLRYQGVPVEEDVGRERRRRVLQTLVWFLLTLLLALFIPDIGKVISVIGGLAACFIFVFPGLCLIQAKLSEMEEVKPASWWVLVSYGVLLVTLGAFIFGQTTANAIFVDLLA [SLC38A7] | -0.213 | -0.113 | -4.08 | -4.26
5 | MDGLRQRVEHFLEQRNLVTEVLGALEAKTGVEKRYLAAGAVTLLSLYLLFGYGASLLCNLIGFVYPAYASIKAIESPSKDDDTVWLTYWVVYALFGLAEFFSDLLLSWFPFYYVGKCAFLLFCMAPRPWNGALMLYQRVVRPLFLRHHGAVDRIMNDLSGRALDAAAGITRNVLQVLARSRAGITPVAVAGPSTPLEADLKPSQTPQPKDK [REEP6] | -0.206 | -0.143 | 0.664 | -0.943
6 | MDTTAAAALPAFVALLLLSPWPLLGSAQGQFSAGGCTFDDGPGACDYHQDLYDDFEWVHVSAQEPHYLPPEMPQGSYMIVDSSDHDPGEKARLQLPTMKENDTHCIDFSYLLYSQKGLNPGTLNILVRVNKGPLANPIWNVTGFTGRDWLRAELAVSTFWPNEYQVIFEAEVSGGRSGYIAIDDIQVLSYPCDKSPHFLRLGDVEVNAGQNATFQCIATGRDAVHNKLWLQRRNGEDIPVAQTKNINHRRFAASFRLQEVTKTDQDLYRCVTQSERGSGVSNFAQLIVREPPRPIAPPQLLGVGPTYLLIQLNANSIIGDGPIILKEVEYRMTSGSWTETHAVNAPTYKLWHLDPDTEYEIRVLLTRPGEGGTGLPGPPLITRTKCAEPMRTPKTLKIAEIQARRIAVDWESLGYNITRCHTFNVTICYHYFRGHNESKADCLDMDPKAPQHVVNHLPPYTNVSLKMILTNPEGRKESEETIIQTDEDVPGPVPVKSLQGTSFENKIFLNWKEPLDPNGIITQYEISYSSIRSFDPAVPVAGPPQTVSNLWNSTHHVFMHLHPGTTYQFFIRASTVKGFGPATAINVTTNISAPTLPDYEGVDASLNETATTITVLLRPAQAKGAPISAYQIVVEELHPHRTKREAGAMECYQVPVTYQNAMSGGAPYYFAAELPPGNLPEPAPFTVGDNRTYQGFWNPPLAPRKGYNIYFQAMSSVEKETKTQCVRIATKAATEEPEVIPDPAKQTDRVVKIAGISAGILVFILLLLVVILIVKKSKLAKKRKDAMGNTRQEMTHMVNAMDRSYADQSTLHAEDPLSITFMDQHNFSPRYENHSATAESSRLLDVPRYLCEGTESPYQTGQLHPAIRVADLLQHINLMKTSDSYGFKEEYESFFEGQSASWDVAKKDQNRAKNRYGNIIAYDHSRVILQPVEDDPSSDYINANYIDGYQRPSHYIATQGPVHETVYDFWRMIWQEQSACIVMVTNLVEVGRVKCYKYWPDDTEVYGDFKVTCVEMEPLAEYVVRTFTLERRGYNEIREVKQFHFTGWPDHGVPYHATGLLSFIRRVKLSNPPSAGPIVVHCSAGAGRTGCYIVIDIMLDMAEREGVVDIYNCVKALRSRRINMVQTEEQYIFIHDAILEACLCGETAIPVCEFKAAYFDMIRIDSQTNSSHLKDEFQTLNSVTPRLQAEDCSIACLPRNHDKNRFMDMLPPDRCLPFLITIDGESSNYINAALMDSYRQPAAFIVTQYPLPNTVKDFWRLVYDYGCTSIVMLNEVDLSQGCPQYWPEEGMLRYGPIQVECMSCSMDCDVINRIFRICNLTRPQEGYLMVQQFQYLGWASHREVPGSKRSFLKLILQVEKWQEECEEGEGRTIIHCLNGGGRSGMFCAIGIVVEMVKRQNVVDVFHAVKTLRNSKPNMVEAPEQYRFCYDVALEYLESS [PTPRK] | 0.0167 | -0.0752 | 1.97 | 1.47
7 | MDANSKDKPPETKESAMNNAGNASFILGTGKIVTPQKHAELPPNPCTPDTFKSPLNFSTVTVEQLGITPESFVRNSAGKSSSYLKKCRRRSAVGARGSPETNHLIRFIARQQNIKNARKSPLAQDSPSQGSPALYRNVNTLRERISAFQSAFHSIKENEKMTGCLEFSEAGKESEMTDLTRKEGLSACQQSGFPAVLSSKRRRISYQRDSDENLTDAEGKVIGLQIFNIDTDRACAVETSVDLSEISSKLGSTQSGFLVEESLPLSELTETSNALKVADCVVGKGSSDAVSPDTFTAEVSSDAVPDVRSPATPACRRDLPTPKTFVLRSVLKKPSVKMCLESLQEHCNNLYDDDGTHPSLISNLPNCCKEKEAEDEENFEAPAFLNMRKRKRVTFGEDLSPEVFDESLPANTPLRKGGTPVCKKDFSGLSSLLLEQSPVPEPLPQPDFDDKGENLENIEPLQVSFAVLSSPNKSSISETLSGTDTFSSSNNHEKISSPKVGRITRTSNRRNQLVSVVEESVCNLLNTEVQPCKEKKINRRKSQETKCTKRALPKKSQVLKSCRKKKGKGKKSVQKSLYGERDIASKKPLLSPIPELPEVPEMTPSIPSIRRLGSGYFSSNGKLEEVKTPKNPVKRKDLLRHDPDLHMHQGYDKYDVSEFCSYIKSSSSLGNATSDEDPNTNIMNINENKNIPKAKNKSESENEPKAGTDSPVSCASVTEERVASDSPKPALTLQQGQEFSAGGQNAENLCQFFKISPDLNIKCERKDDFLGAAEGKLQCNRLMPNSQKDCHCLGDVLIENTKESKSQSEDLGRKPMESSSVVSCRDRKDRRRSMCYSDGRSLHLEKNGNHTPSSSVGSSVEISLENSELFKDLSDAIEQTFQRRNSETKVRRSTRLQKDLENEGLVWISLPLPSTSQKAKRRTICTFDSSGFESMSPIKETVSSRQKPQMAPPVSDPENSQGPAAGSSDEPGKRRKSFCISTLANTKATSQFKGYRRRSSLNGKGESSLTALERIEHNGERKQ [CDCA2] | -0.581 | 0.243 | 0.00387 | -1.54
8 | MDWQPDEQGLQQVLQLLKDSQSPNTATQRIVQDKLKQLNQFPDFNNYLIFVLTRLKSEDEPTRSLSGLILKNNVKAHYQSFPPPVADFIKQECLNNIGDASSLIRATIGILITTIASKGELQMWPELLPQLCNLLNSEDYNTCEGAFGALQKICEDSSELLDSDALNRPLNIMIPKFLQFFKHCSPKIRSHAIACVNQFIMDRAQALMDNIDTFIEHLFALAVDDDPEVRKNVCRALVMLLEVRIDRLIPHMHSIIQYMLQRTQDHDENVALEACEFWLTLAEQPICKEVLASHLVQLIPILVNGMKYSEIDIILLKGDVEEDEAVPDSEQDIKPRFHKSRTVTLPHEAERPDGSEDAEDDDDDDALSDWNLRKCSAAALDVLANVFREELLPHLLPLLKGLLFHPEWVVKESGILVLGAIAEGCMQGMVPYLPELIPHLIQCLSDKKALVRSIACWTLSRYAHWVVSQPPDMHLKPLMTELLKRILDGNKRVQEAACSAFATLEEEACTELVPYLSYILDTLVFAFGKYQHKNLLILYDAIGTLADSVGHHLNQPEYIQKLMPPLIQKWNELKDEDKDLFPLLECLSSVATALQSGFLPYCEPVYQRCVTLVQKTLAQAMMYTQHPEQYEAPDKDFMIVALDLLSGLAEGLGGHVEQLVARSNIMTLLFQCMQDSMPEVRQSSFALLGDLTKACFIHVKPCIAEFMPILGTNLNPEFISVCNNATWAIGEICMQMGAEMQPYVQMVLNNLVEIINRPNTPKTLLENTGRLTSPSAIPAITIGRLGYVCPQEVAPMLQQFIRPWCTSLRNIRDNEEKDSAFRGICMMIGVNPGGVVQDFIFFCDAVASWVSPKDDLRDMFYKILHGFKDQVGEDNWQQFSEQFPPLLKERLAAFYGV [TNPO2] | 0.0053 | -0.263 | -0.161 | 0.756
9 | MTKLAQWLWGLAILGSTWVALTTGALGLELPLSCQEVLWPLPAYLLVSAGCYALGTVGYRVATFHDCEDAARELQSQIQEARADLARRGLRF [DPM3] | -0.196 | -0.214 | -3.28 | -4.14
10 | TNS1 | -0.0779 | 0.117 | 0.323 | 1.79
